IntAct's records for PubMed 31515488

B1: Transmembrane protein 51 (Homo sapiens), Q9NW97 (parent)
chain: MMAQSKANGSHYALTAIGLGMLVLGVIMAMWNLVPGFSAAEKPTAQGSNKTEVGGGILKSKTFSVAYVLVGAGVMLLLLSICLSIRDKRKQRQGEDLAHVQHPTGAGPHAQEEDSQEEEEEDEEAASRYYVPSYEEVMNTNYSEARGEEQNPRLSISLPSYESLTGLDETTPTSTRADVEASPGNPPDRQNSKLAKRLKPLKVRRIKSEKLHLKDFRINLPDKNVPPPSIEPLTPPPQYDEVQEKAPDTRPPD
partner: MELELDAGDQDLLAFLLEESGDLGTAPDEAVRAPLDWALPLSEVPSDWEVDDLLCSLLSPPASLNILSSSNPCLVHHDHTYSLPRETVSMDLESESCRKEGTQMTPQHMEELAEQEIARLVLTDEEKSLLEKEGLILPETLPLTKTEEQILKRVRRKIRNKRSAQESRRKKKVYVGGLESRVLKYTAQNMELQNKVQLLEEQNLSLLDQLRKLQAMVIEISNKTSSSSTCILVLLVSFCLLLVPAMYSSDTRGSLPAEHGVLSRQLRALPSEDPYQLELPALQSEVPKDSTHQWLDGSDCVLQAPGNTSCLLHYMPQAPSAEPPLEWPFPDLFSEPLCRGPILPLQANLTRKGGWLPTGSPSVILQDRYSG
B2: Cyclin-dependent kinase 2-interacting protein (Homo sapiens), Q9BW66 (parent)
chain: MEAKTLGTVTPRKPVLSVSARKIKDNAADWHNLILKWETLNDAGFTTANNIANLKISLLNKDKIELDSSSPASKENEEKVCLEYNEELEKLCEELQATLDGLTKIQVKMEKLSSTTKGICELENYHYGEESKRPPLFHTWPTTHFYEVSHKLLEMYRKELLLKRTVAKELAHTGDPDLTLSYLSMWLHQPYVESDSRLHLESMLLETGHRAL
partner: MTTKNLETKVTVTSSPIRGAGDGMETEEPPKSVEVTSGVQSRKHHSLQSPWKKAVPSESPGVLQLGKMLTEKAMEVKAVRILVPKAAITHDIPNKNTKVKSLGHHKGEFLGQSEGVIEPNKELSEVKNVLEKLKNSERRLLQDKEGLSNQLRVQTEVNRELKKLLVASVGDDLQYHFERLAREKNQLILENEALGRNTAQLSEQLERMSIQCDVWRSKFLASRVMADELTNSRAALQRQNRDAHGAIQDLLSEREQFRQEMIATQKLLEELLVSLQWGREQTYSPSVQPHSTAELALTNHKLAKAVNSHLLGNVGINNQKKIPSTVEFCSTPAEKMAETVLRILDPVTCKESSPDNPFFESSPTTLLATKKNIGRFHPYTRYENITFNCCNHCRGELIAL
B3: 6-pyruvoyl tetrahydrobiopterin synthase (Homo sapiens), Q03393 (parent)
chain: MSTEGGGRRCQAQVSRRISFSASHRLYSKFLSDEENLKLFGKCNNPNGHGHNYKVVVTVHGEIDPATGMVMNLADLKKYMEEAIMQPLDHKNLDMDVPYFADVVSTTENVAVYIWDNLQKVLPVGVLYKVKVYETDNNIVVYKGE
B4: Four and a half LIM domains protein 2 (Homo sapiens), Q14192 (parent)
chain: MTERFDCHHCNESLFGKKYILREESPYCVVCFETLFANTCEECGKPIGCDCKDLSYKDRHWHEACFHCSQCRNSLVDKPFAAKEDQLLCTDCYSNEYSSKCQECKKTIMPGTRKMEYKGSSWHETCFICHRCQQPIGTKSFIPKDNQNFCVPCYEKQHAMQCVQCKKPITTGGVTYREQPWHKECFVCTACRKQLSGQRFTARDDFAYCLNCFCDLYAKKCAGCTNPISGLGGTKYISFEERQWHNDCFNCKKCSLSLVGRGFLTERDDILCPDCGKDI
partner: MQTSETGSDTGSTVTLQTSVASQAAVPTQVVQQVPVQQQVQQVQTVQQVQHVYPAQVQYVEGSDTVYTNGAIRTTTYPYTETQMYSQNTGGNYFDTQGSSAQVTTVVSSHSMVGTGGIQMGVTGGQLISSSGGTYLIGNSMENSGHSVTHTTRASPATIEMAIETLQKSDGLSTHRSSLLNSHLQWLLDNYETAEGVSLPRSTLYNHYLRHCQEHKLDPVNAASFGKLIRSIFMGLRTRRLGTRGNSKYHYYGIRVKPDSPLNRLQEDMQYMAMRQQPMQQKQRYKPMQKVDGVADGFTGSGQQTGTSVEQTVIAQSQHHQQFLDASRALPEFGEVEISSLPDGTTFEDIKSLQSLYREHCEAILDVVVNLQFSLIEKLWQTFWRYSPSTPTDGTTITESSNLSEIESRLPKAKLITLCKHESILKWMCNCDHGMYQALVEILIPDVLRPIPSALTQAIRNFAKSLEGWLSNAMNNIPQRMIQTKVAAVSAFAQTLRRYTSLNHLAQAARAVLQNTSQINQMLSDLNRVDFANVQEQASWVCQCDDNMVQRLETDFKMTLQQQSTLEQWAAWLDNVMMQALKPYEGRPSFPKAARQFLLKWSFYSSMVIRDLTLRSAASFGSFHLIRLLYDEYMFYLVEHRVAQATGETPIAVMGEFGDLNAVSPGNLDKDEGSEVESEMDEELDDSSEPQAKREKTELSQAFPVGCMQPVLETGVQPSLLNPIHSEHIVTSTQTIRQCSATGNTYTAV
B5: Arginine/serine-rich protein 1 (Homo sapiens), Q9BUV0 (parent)
chain: MSNYVNDMWPGSPQEKDSPSTSRSGGSSRLSSRSRSRSFSRSSRSHSRVSSRFSSRSRRSKSRSRSRRRHQRKYRRYSRSYSRSRSRSRSRRYRERRYGFTRRYYRSPSRYRSRSRSRSRSRGRSYCGRAYAIARGQRYYGFGRTVYPEEHSRWRDRSRTRSRSRTPFRLSEKDRMELLEIAKTNAAKALGTTNIDLPASLRTVPSAKETSRGIGVSSNGAKPELSEKVTEDGTRNPNEKPTQQRSIAFSSNNSVAKPIQKSAKAATEEASSRSPKIDQKKSPYGLWIPI

Variants of: B1
Settings: with creb3_human CREB3, O43889

| Variant | effect of a mutation on the interaction |
| --- | --- |
| P159S | with no effect |
| P237L | with no effect |

The next lines start with the values.

| effect of a mutation on the interaction | Variant |
| --- | --- |
| with no effect | R146W |
| with no effect | D188G |

Variants of: B2
Settings: with go45_human BLZF1, Q9H2G9

| effect of a mutation on the interaction | Variant |
| --- | --- |
| with no effect | R164H |

Variants of: B2
Settings: with go45_human BLZF1, Q9H2G9
Remark: another data set of the same source

| effect of a mutation on the interaction | Variant |
| --- | --- |
| with no effect | D177N |

Variants of: B3
Settings: with c1qc_human C1QC

| effect of a mutation on the interaction | Variant |
| --- | --- |
| disrupting interaction strength | R25Q |
| disrupting interaction strength | T106M |
| disrupting interaction strength | R9C |

Variants of: B3
Settings: with ntaq1_human NTAQ1, Q96HA8

| Variant | effect of a mutation on the interaction |
| --- | --- |
| T67M | disrupting interaction strength |
| P123S | disrupting interaction strength |

Further lines, results first:

| effect of a mutation on the interaction | Variant |
| --- | --- |
| disrupting interaction strength | R25Q |
| disrupting interaction strength | T106M |
| disrupting interaction strength | R9C |

Variants of: B3
Settings: with fxr2_human FXR2, P51116

| effect of a mutation on the interaction | Variant |
| --- | --- |
| disrupting interaction strength | R25Q |
| disrupting interaction strength | T106M |
| disrupting interaction strength | R9C |

Variants of: B3
Settings: with sdcb1_human SDCBP

| effect of a mutation on the interaction | Variant |
| --- | --- |
| disrupting interaction strength | T106M |

Variants of: B4
Settings: with rfx3_human RFX3, P48380

| effect of a mutation on the interaction | Variant |
| --- | --- |
| with no effect | N95K |
| with no effect | A37S |

Variants of: B5
Settings: with clk2_human CLK2, P49760
Chain of clk2_human CLK2, P49760 (P49760 whole entry, looked up): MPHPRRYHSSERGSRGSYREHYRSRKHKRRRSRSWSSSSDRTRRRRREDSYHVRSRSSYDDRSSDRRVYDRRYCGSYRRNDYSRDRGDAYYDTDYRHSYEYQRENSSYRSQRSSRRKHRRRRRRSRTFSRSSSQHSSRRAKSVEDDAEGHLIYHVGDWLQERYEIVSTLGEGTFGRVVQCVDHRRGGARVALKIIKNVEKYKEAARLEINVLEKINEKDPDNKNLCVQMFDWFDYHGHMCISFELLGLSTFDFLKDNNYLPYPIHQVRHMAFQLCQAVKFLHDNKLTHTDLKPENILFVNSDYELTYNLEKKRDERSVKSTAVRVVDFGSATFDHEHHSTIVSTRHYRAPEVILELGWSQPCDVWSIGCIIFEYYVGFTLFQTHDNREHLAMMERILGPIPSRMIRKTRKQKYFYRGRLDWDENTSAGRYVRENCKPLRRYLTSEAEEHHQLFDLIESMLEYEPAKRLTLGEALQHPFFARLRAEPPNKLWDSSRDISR

| effect of a mutation on the interaction | Variant |
| --- | --- |
| with no effect | V216A |
| with no effect | S20L |

Variants of: B5
Settings: with clk3_human CLK3, P49761
Chain of clk3_human CLK3, P49761 (P49761 whole entry, looked up): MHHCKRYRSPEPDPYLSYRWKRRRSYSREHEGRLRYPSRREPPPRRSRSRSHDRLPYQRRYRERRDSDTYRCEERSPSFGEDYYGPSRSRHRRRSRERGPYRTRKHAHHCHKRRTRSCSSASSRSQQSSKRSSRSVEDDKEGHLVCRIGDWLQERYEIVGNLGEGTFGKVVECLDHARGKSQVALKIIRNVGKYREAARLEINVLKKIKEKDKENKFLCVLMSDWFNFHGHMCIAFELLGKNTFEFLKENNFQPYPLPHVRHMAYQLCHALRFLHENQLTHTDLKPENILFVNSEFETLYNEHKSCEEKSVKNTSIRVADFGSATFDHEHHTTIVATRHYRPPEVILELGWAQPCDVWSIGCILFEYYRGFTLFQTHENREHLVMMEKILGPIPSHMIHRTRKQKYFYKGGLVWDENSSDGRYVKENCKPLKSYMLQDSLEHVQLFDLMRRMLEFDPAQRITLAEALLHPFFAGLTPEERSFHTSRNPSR

| effect of a mutation on the interaction | Variant |
| --- | --- |
| with no effect | V216A |
| with no effect | S20L |
